In article PMC9666519 one finds stoichiometry N (PI31L per 20S core particle), percent of proteasome particles capped by RP and percent of proteasome particles capped by RP on both ends data, which are given here for two substances.

In assay [1] the target is 20S proteasome core particle of Vairimorpha necatrix (Vairimorpha necatrix (endogenous in spores)). Nature of the assay: cryo-EM structure; proteasomes from dormant V. necatrix spores, bead-beaten without ATP, lysate on Superose 6 Increase in 50 mM Tris pH 7.4, 300 mM NaCl, 5 mM DTT; 2.8 Å map of the 20S CP, C2 symmetry.
For assay [2] the target is unchanged. Nature of the assay: cryo-EM structure; 26S proteasomes from germinated sporoplasms, purified with 20 mM ATP; 8.3 Å map without symmetry, AlphaFold models of the RP subunits docked as rigid bodies.

In assay [1], “PI31-like protein (PI31L) of Vairimorpha necatrix (natural protein)” registered a stoichiometry N (PI31L per 20S core particle) of 2. “19S regulatory particle of the Vairimorpha necatrix proteasome (complex)”: in assay [2], the percent of proteasome particles capped by RP turned out to be 12% and the percent of proteasome particles capped by RP on both ends came to 1.5%.
